We go through three molecules from publication PMC12018148.

Test [1] has as its target activated factor X (FXa) (human). The test can be described thus: kinetics of protease inhibition.
Test [2] concerns the target activated factor XI (FXIa) (human). In words: kinetics of protease inhibition.

Chain of activated factor X (FXa) (human) (P00742 whole entry): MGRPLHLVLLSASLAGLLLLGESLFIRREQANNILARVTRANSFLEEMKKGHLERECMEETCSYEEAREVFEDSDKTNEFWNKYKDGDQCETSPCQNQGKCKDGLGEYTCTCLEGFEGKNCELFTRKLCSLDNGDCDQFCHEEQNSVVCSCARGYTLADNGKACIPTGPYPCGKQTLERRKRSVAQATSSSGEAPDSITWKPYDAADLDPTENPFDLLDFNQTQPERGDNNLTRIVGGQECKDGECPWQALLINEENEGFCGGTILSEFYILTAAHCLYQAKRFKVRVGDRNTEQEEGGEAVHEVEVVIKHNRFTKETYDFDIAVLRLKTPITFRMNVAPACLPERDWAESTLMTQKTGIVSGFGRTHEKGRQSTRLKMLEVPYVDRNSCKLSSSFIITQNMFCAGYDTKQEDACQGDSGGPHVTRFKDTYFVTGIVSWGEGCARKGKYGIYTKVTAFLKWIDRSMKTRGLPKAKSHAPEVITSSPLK

B1: protein Z-dependent protease inhibitor (ZPI), wild type, recombinant human (natural protein)
chain: LAPSPQSPETPAPQNQTSRVVQAPKEEEEDEQEASEEKASEEEKAWLMASRQQLAKETSNFGFSLLRKISMRHDGNMVFSPFGMSLAMTGLMLGATGPTETQIKRGLHLQALKPTKPGLLPSLFKGLRETLSRNLELGLTQGSFAFIHKDFDVKETFFNLSKRYFDTECVPMNFRNASQAKRLMNHYINKETRGKIPKLFDEINPETKLILVDYILFKGKWLTPFDPVFTEVDTFHLDKYKTIKVPMMYGAGKFASTFDKNFRCHVLKLPYQGNATMLVVLMEKMGDHLALEDYLTTDLVETWLRNMKTRNMEVFFPKFKLDQKYEMHELLRQMGIRRIFSPFADLSELSATGRNLQVSRVLQRTVIEVDERGTEAVAGILSEITAYSMPPVIKVDRPFHFMIYEETSGMLLFLGRVVNPTLL
Turning to B1, in test [1], the ka with equimolar PZ and lipids, no FVa came out at 1.79e+06 M⁻¹ s⁻¹; the ka with equimolar PZ, lipids and FVa is 296000 M⁻¹ s⁻¹; the kon – broadly, the rate constant with which the complex forms – was 9200 M⁻¹ s⁻¹. Also, in test [2], the Kd – broadly, the concentration at which binding is half-saturated – turned out to be 2 nM and the on-rate (kon) was found to be 86200 M⁻¹ s⁻¹.

B2: D293A/Y387D ZPI (double mutant of the protein Z-dependent protease inhibitor; P1 residue Y387 changed) (natural protein)
chain: LAPSPQSPETPAPQNQTSRVVQAPKEEEEDEQEASEEKASEEEKAWLMASRQQLAKETSNFGFSLLRKISMRHDGNMVFSPFGMSLAMTGLMLGATGPTETQIKRGLHLQALKPTKPGLLPSLFKGLRETLSRNLELGLTQGSFAFIHKDFDVKETFFNLSKRYFDTECVPMNFRNASQAKRLMNHYINKETRGKIPKLFDEINPETKLILVDYILFKGKWLTPFDPVFTEVDTFHLDKYKTIKVPMMYGAGKFASTFDKNFRCHVLKLPYQGNATMLVVLMEKMGDHLALEAYLTTDLVETWLRNMKTRNMEVFFPKFKLDQKYEMHELLRQMGIRRIFSPFADLSELSATGRNLQVSRVLQRTVIEVDERGTEAVAGILSEITADSMPPVIKVDRPFHFMIYEETSGMLLFLGRVVNPTLL
In turn, B2 registered a kon in test [2] of 2600 M⁻¹ s⁻¹.

B3: D293A ZPI (protein Z-dependent protease inhibitor with Asp 293 mutated to Ala), recombinant human (natural protein)
chain: LAPSPQSPETPAPQNQTSRVVQAPKEEEEDEQEASEEKASEEEKAWLMASRQQLAKETSNFGFSLLRKISMRHDGNMVFSPFGMSLAMTGLMLGATGPTETQIKRGLHLQALKPTKPGLLPSLFKGLRETLSRNLELGLTQGSFAFIHKDFDVKETFFNLSKRYFDTECVPMNFRNASQAKRLMNHYINKETRGKIPKLFDEINPETKLILVDYILFKGKWLTPFDPVFTEVDTFHLDKYKTIKVPMMYGAGKFASTFDKNFRCHVLKLPYQGNATMLVVLMEKMGDHLALEAYLTTDLVETWLRNMKTRNMEVFFPKFKLDQKYEMHELLRQMGIRRIFSPFADLSELSATGRNLQVSRVLQRTVIEVDERGTEAVAGILSEITAYSMPPVIKVDRPFHFMIYEETSGMLLFLGRVVNPTLL
Turning to B3, in test [1], the ka with equimolar PZ and lipids, no FVa came to 85000 M⁻¹ s⁻¹; the ka with equimolar PZ, lipids and FVa was 6800 M⁻¹ s⁻¹; the kon was 9500 M⁻¹ s⁻¹. In test [2], this molecule gave a Kd of 2 nM and a kon of 112000 M⁻¹ s⁻¹.
